# Measured values reported in patent US20220098261A1 (Harvard, published 2022).
# T1: EPO receptor on cells (human, UniProt P19235 25-508)
# T1 sequence (looked up): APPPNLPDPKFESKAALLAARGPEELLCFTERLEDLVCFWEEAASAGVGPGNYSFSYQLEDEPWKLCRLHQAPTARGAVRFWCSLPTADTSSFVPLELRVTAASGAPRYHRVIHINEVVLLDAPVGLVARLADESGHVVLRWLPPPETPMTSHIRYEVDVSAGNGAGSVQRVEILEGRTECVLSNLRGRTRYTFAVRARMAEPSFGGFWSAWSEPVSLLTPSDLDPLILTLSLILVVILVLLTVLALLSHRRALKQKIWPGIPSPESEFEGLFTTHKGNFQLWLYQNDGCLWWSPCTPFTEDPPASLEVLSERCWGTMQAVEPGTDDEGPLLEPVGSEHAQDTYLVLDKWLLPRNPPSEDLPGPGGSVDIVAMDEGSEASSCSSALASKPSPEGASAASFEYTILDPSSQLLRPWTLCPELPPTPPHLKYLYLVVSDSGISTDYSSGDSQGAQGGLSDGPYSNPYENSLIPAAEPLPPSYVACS
# T2: human glycophorin A (human, UniProt P02724 20-150)
# T2 construct: Native protein on human red blood cells (and TF-1 cells); also called GYPA; huGYPA
# T2 sequence: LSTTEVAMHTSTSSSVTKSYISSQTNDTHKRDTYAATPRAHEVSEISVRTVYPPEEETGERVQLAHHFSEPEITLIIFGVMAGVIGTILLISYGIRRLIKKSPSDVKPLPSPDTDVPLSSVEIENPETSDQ
# B1: IH4v1 nanobody (VHH)
# VHH: QVQLQESGGGSVQAGGSLRLSCVASGYTDSTYCVGWFRQAPGKEREGVARINTISGRPWYADSVKGRFTISQDNSKNTVYLQMNSLKPEDTAIYYCTLTTANSRGFCSGGYNYKGQGTQVTVS
# notes: Camelid single-domain antibody with the added Thr118
# B2: 1C3 scFv (scFv)
# scFv: EVRLLESGGGPVQPGGSLKLSCAASGFDFSRYWMNWVRRAPGKGLEWIGEINQQSSTINYSPPLKDKFIISRDNAKSTLYLQMNKVRSEDTALYYCARLSLTAAGFAYWGQGTLVTVSAGGGSSGGSGSSGGSSSGGDIVMSQSPSSLAVSVGEKVSMSCKSSQSLFNSRTRKNYLTWYQQKPGQSPKPLIYWASTRESGVPDRFTGSGSGTDFTLTISSVQAEDLADYYCKQSYNLRTFGGGTKLEIK
# Columns and labels:
# EPO receptor on cells = molecular target: T1, EPO receptor on cells; assay: cell-based or functional assay
# human glycophorin A [1] = molecular target: T2, human glycophorin A; assay: column 'Binding strength' of Table 1, format nanobody; method not stated
# human glycophorin A [2] = molecular target: T2, human glycophorin A; assay: column 'Binding strength' of Table 1, format scFv; method not stated
molecule,measurement,setting,value
Darbepoetin (Amgen) (ligand),"TF-1 cell proliferation, EC50 relative to epoetin alpha",EPO receptor on cells,14.7 fold
B1,Kd,human glycophorin A [1],30 nM
B2,Kd,human glycophorin A [2],30 nM
